# Experimental data from patent US7588931B2, “High arachidonic acid producing strains of Yarrowia lipolytica” (E. I. du Pont de Nemours and Company, priority 2004, dated 2009).
# B1: Rattus norvegicus C16/18 elongase: GenBank AB071986; codon-optimized gene SEQ ID NO:52 (protein, listed as Rattus norvegicus)
# chain: MDMSVLTLQEYEFEKQFNENEAIQWMQENWKKSFLFSALYAAFIFGGRHLMNKRAKFELRKPLVLWSLTLAVFSIFGALRTGAYMLYILMTKGLKQSVCDQSFYNGPVSKFWAYAFVLSKAPELGDTIFIILRKQKLIFLHWYHHITVLLYSWYSYKDMVAGGGWFMTMNYGVHAVMYSYYALRAAGFRVSRKFAMFITLSQITQMLMGCVINYLVFNWMQHDNDQCYSHFQNIFWSSLMYLSYLLLFCHFFFEAYIGKVKKATKAE
# modifications: misc_feature: synthetic C16/18 elongase (codon-optimized)
# B2: EXP1: Y. lipolytica export protein promoter, SEQ ID NO:364 (nucleic acid, listed as Yarrowia lipolytica)
# DNA: GGAGTTTGGCGCCCGTTTTTTCGAGCCCCACACGTTTCGGTGAGTATGAGCGGCGGCAGATTCGAGCGTTTCCGGTTTCCGCGGCTGGACGAGAGCCCATGATGGGGGCTCCCACCACCAGCAATCAGGGCCCTGATTACACACCCACCTGTAATGTCATGCTGTTCATCGTGGTTAATGCTGCTGTGTGCTGTGTGTGTGTGTTGTTTGGCGCTCATTGTTGCGTTATGCAGCGTACACCACAATATTGGAAGCTTATTAGCCTTTCTATTTTTTCGTTTGCAAGGCTTAACAACATTGCTGTGGAGAGGGATGGGGATATGGAGGCCGCTGGAGGGAGTCGGAGAGGCGTTTTGGAGCGGCTTGGCCTGGCGCCCAGCTCGCGAAACGCACCTAGGACCCTTTGGCACGCCGAAATGTGCCACTTTTCAGTCTAGTAACGCCTTACCTACGTCATTCCATGCATGCATGTTTGCGCCTTTTTTCCCTTGCCCTTGATCGCCACACAGTACAGTGCACTGTACAGTGGAGGTTTTGGGGGGGTCTTAGATGGGAGCTAAAAGCGGCCTAGCGGTACACTAGTGGGATTGTATGGAGTGGCATGGAGCCTAGGTGGAGCCTGACAGGACGCACGACCGGCTAGCCCGTGACAGACGATGGGTGGCTCCTGTTGTCCACCGCGTACAAATGTTTGGGCCAAAGTCTTGTCAGCCTTGCTTGCGAACCTAATTCCCAATTTTGTCACTTCGCACCCCCATTGATCGAGCCCTAACCCCTGCCCATCAGGCAATCCAATTAAGCTCGCATTGTCTGCCTTGTTTAGTTTGGCTCCTGCCCGTTTCGGCGTCCACTTGCACAAACACAAACAAGCATTATATATAAGGCTCGTCTCTCCCTCCCAACCACACTCACTTTTTTGCCCGTCTTCCCTTGCTAACACAAAAGTCAAGAACACAAACAACCACCCCAACCCCCTTACACACAAGACATATCTACAGCA
# modifications: misc_feature: Promoter EXP1
# B3: FBAINm: modified version of the FBAIN promoter, SEQ ID NO:163 (nucleic acid, listed as Yarrowia lipolytica)
# DNA: AAATTGCCCCGGAGAAGACGGCCAGGCCGCCTAGATGACAAATTCAACAACTCACAGCTGACTTTCTGCCATTGCCACTAGGGGGGGGCCTTTTTATATGGCCAAGCCAAGCTCTCCACGTCGGTTGGGCTGCACCCAACAATAAATGGGTAGGGTTGCACCAACAAAGGGATGGGATGGGGGGTAGAAGATACGAGGATAACGGGGCTCAATGGCACAAATAAGAACGAATACTGCCATTAAGACTCGTGATCCAGCGACTGACACCATTGCATCATCTAAGGGCCTCAAAACTACCTCGGAACTGCTGCGCTGATCTGGACACCACAGAGGTTCCGAGCACTTTAGGTTGCACCAAATGTCCCACCAGGTGCAGGCAGAAAACGCTGGAACAGCGTGTACAGTTTGTCTTAACAAAAAGTGAGGGCGCTGAGGTCGAGCAGGGTGGTGTGACTTGTTATAGCCTTTAGAGCTGCGAAAGCGCGTATGGATTTGGCTCATCAGGCCAGATTGAGGGTCTGTGGACACATGTCATGTTAGTGTACTTCAATCGCCCCCTGGATATAGCCCCGACAATAGGCCGTGGCCTCATTTTTTTGCCTTCCGCACATTTCCATTGCTCGGTACCCACACCTTGCTTCTCCTGCACTTGCCAACCTTAATACTGGTTTACATTGACCAACATCTTACAAGCGGGGGGCTTGTCTAGGGTATATATAAACAGTGGCTCTCCCAATCGGTTGCCAGTCTCTTTTTTCCTTTCTTTCCCCACAGATTCGAAATCTAAACTACACATCACAGAATTCCGAGCCGTGAGTATCCACGACAAGATCAGTGTCGAGACGACGCGTTTTGTGTAATGACACAATCCGAAAGTCGCTAGCAACACACACTCTCTACACAAACTAACCCAGCTCTGGTACC
# modifications: misc_feature: Promoter FBAINm
# B4: Homo sapiens Δ5 desaturase: GenBank NP_037534; codon-optimized gene SEQ ID NO:13 (protein, listed as Homo sapiens)
# chain: MAPDPVAAETAAQGPTPRYFTWDEVAQRSGCEERWLVIDRKVYNISEFTRRHPGGSRVISHYAGQDATDPFVAFHINKGLVKKYMNSLLIGELSPEQPSFEPTKNKELTDEFRELRATVERMGLMKANHVFFLLYLLHILLLDGAAWLTLWVFGTSFLPFLLCAVLLSAVQAQAGWLQHDFGHLSVFSTSKWNHLLHHFVIGHLKGAPASWWNHMHFQHHAKPNCFRKDPDINMHPFFFALGKILSVELGKQKKKYMPYNHQHKYFFLIGPPALLPLYFQWYIFYFVIQRKKWVDLAWMITFYVRFFLTYVPLLGLKAFLGLFFIVRFLESNWFVWVTQMNHIPMHIDHDRNMDWVSTQLQATCNVHKSAFNDWFSGHLNFQIEHHLFPTMPRHNYHKVAPLVQSLCAKHGIEYQSKPLLSAFADIIHSLKESGQLWLDAYLHQ
# modifications: misc_feature: synthetic delta-5 desaturase (codon-optimized)
# Columns and labels:
# Yarrowia lipolytica = experiment: Percent substrate conversion of desaturases and elongases expressed in Yarrowia lipolytica; assay type: cell-based; details: percent substrate conversion, codon-optimized gene expressed in Y. lipolytica
# Method: The terms “conversion efficiency” and “percent substrate conversion” refer to the efficiency by which a particular enzyme (e.g., a desaturase or elongase) can convert substrate to product. The conversion efficiency is measured according to the following formula: ([product]/[substrate+product])*100, where ‘product’ includes the immediate product and all products in the pathway derived from it.
# With respect to Δ12 desaturase, Applicants have made the surprising discovery that the Fusarium moniliforme Δ12 desaturase (encoded by SEQ ID NO:27) functions with greater efficiency than the native Yarrowia lipolytica Δ12 desaturase in producing 18:2 in Y. lipolytica (see WO 2005/047485). Specifically, expression of the F. moniliforme Δ12 desaturase under the control of the TEF promoter in Y. lipolytica was determined to produce higher levels of 18:2 (68% product accumulation of LA) than were previously attainable by expression of a chimeric gene encoding the Y. lipolytica Δ12 desaturase under the control of the TEF promoter (59% product accumulation of LA). This corresponds to a difference in percent substrate conversion (calculated as ([18:2+18:3]/[18:1+18:2+18:3])*100) of 85% versus 74%, respectively.
# In the present invention, several desaturase and elongase genes from Table 5 were codon-optimized for expression in Yarrowia lipolytica, based on the host preferences described above. This was possible by first determining the Y. lipolytica codon usage profile (see WO 04/101757) and identifying those codons that were preferred. Then, for further optimization of gene expression in Y. lipolytica, the consensus sequence around the ‘ATG’ initiation codon was determined (i.e., ‘MAMMATGNHS’ (SEQ ID NO:356), wherein the nucleic acid degeneracy code used is as follows: M=A/C; S═C/G; H=A/C/T; and N=A/C/G/T). Table 7, below, compares the activity of native and codon-optimized genes when expressed in Y. lipolytica and provides details about each codon-optimized gene. % Sub. Conv. is the abbeviation for “percent substrate conversion” and Codon-Opt. is an abbreviation for “codon-optimized”.
# Construct pDMW237 (FIG. 8C), an auto-replication plasmid comprising a chimeric FBAIN::1 g D9e::Pex20 gene, was transformed into Y. lipolytica Y2031 strain (Example 4) as described in the General Methods. Three transformants of Y2031 with pDMW237 were grown individually in MM media for two days and the cells were collected by centrifugation, lipids were extracted, and fatty acid methyl esters were prepared by trans-esterification, and subsequently analyzed with a Hewlett-Packard 6890 GC.
# Construct pDMW297 was then used for transformation of strain Y2031 (Example 5) according to the General Methods. The transformant cells were plated onto MM selection media plates and maintained at 30° C. for 2 to 3 days. A total of 8 transformants grown on the MM plates were picked and re-streaked onto fresh MM plates. Once grown, these strains were individually inoculated into liquid MM at 30° C. and shaken at 250 rpm/min for 2 days. The cells were collected by centrifugation, lipids were extracted, and fatty acid methyl esters were prepared by trans-esterification, and subsequently analyzed with a Hewlett-Packard 6890 GC.
# [1] = test system: β-glucuronidase (GUS) reporter; experiment: Relative promoter activity rank from comparative GUS reporter studies (histochemical, fluorometric and/or Real Time PCR); assay type: cell-based, Yarrowia lipolytica; details: relative to other promoters
# Method: The activity of GPM is about the same as TEF, while the activity of GPD, FBA, FBAIN, FBAINm, GPDIN, GPAT, YAT1 and EXP1 are all greater than TEF (activity is quantified in a relative manner in the column titled “Activity Rank”, wherein a ‘1’ corresponds to the promoter with lowest activity, while a ‘7’ corresponds to the promoter with highest activity). […] GUS activity in each expressed construct was measured by histochemical and/or fluorometric assays (Jefferson, R. A. Plant Mol. Biol. Reporter 5:387-405 (1987)) and/or by use of Real Time PCR.
Molecule,Codon-Opt. Gene % Sub. Conv. (Yarrowia lipolytica) [%],Activity “Rank” [1]
B1,43,
B2,,6
B3,,5
B4,30,
